Source: US20230060388A1 (SHANGHAI HENLIUS BIOTECH, published 2023)
Where two headings read alike, the source gives them in different places.

T1: his-tagged recombinant human TIGIT ECD (human, UniProt Q495A1 22-138)
T1 construct: also called h-TIGIT ECD (his-tagged); not shown: his tag
T1 sequence: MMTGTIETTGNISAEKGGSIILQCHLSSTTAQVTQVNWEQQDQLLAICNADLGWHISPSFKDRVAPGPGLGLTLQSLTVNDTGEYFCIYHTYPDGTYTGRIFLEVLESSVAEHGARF

T2: human TIGIT expressed on cells (stably transfected Jurkat cells) (human, UniProt Q495A1 22-244)
T2 sequence: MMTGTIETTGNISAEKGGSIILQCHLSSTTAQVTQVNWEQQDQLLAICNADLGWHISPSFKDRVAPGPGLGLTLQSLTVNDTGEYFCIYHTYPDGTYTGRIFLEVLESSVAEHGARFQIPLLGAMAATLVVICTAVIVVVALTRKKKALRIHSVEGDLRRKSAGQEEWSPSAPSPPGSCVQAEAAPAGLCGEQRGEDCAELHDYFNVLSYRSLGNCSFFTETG


Columns and labels:
[1] = target: T3, human PD1 expressed on transfected Jurkat cells (human, UniProt Q15116 25-288); assay: cell-based or functional assay
T3 sequence (Q15116 25-288): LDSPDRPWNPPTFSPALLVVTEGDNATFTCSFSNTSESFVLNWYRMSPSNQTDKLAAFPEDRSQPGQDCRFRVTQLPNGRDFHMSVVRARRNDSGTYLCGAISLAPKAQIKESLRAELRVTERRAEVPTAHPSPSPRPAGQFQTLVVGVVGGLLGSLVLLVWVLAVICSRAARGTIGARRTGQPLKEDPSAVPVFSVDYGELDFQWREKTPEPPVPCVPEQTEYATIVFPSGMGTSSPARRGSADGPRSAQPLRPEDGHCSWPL

[2] = target: T3, human PD1 expressed on transfected …; assay: PD1 WCB: whole cell binding, flow cytometry, h-PD1 Jurkat cells; mean
Procedure: The binding affinities of the BsAbs to human PD1 were also determined by whole cell binding assays using human PD1 transfected Jurkat cells. Antibodies were incubated with h-PD1 transfected Jurkat cells, and binding was determined using a secondary anti-h-IgG antibody conjugated with AlexaFluor488, which was detected by flow cytometry.

[3] = target: T1, his-tagged recombinant human TIGIT ECD; assay: Octet, antibody loaded on the sensor, his-tagged h-PD1 ECD injected first, his-tagged h-TIGIT ECD second
[4] = target: T3, human PD1 expressed on transfected …; assay: flow cytometry (whole cell binding) on h-PD1 transfected Jurkat cells; table under the graph, Average (n=4), SD 0.18
[5] = target: T2, human TIGIT expressed on cells (stably …); assay: cell-based or functional assay
[6] = target: T2, human TIGIT expressed on cells (stably …); assay: TIGIT WCB: whole cell binding, flow cytometry, h-TIGIT Jurkat cells; mean
Procedure: Affinity to TIGIT was further examined in whole cell binding assay using human TIGIT transfected Jurkat cells. Antibodies were incubated with h-TIGIT transfected Jurkat cells, and binding of antibodies to h-TIGIT was determined using a secondary anti-human-IgG Fc antibody conjugated with AlexaFluor488, which was detected by flow cytometry.

[7] = target: T2, human TIGIT expressed on cells (stably …); assay: flow cytometry (whole cell binding) on h-TIGIT transfected Jurkat cells; table under the graph, Average (n=3), SD 0.37
[8] = target: T2, human TIGIT expressed on cells (stably …); assay: flow cytometry (whole cell binding) on h-TIGIT transfected Jurkat cells; table under the graph, Average (n=3), SD 1.61
[9] = target: T2, human TIGIT expressed on cells (stably …); assay: flow cytometry on h-TIGIT transfected Jurkat cells, anti-human IgG Fc Alexa Fluor 488
Description: FIGS. 1A-1C depict whole cell binding of representative VHH bivalent antibodies to human TIGIT determined by flowcytometry assays. […] Y axis represents Mean Fluorescence Intensity of AlexaFlour 488. X axis represents antibody concentrations in nanomolar. 2B7, 1G1, 1C12, 3G6, 2B10, 3G7, 3G10, 13H11, and 15A5 are VHH clones of anti-human TIGIT. FIG. 1C is a schematic of the structure of a TIGIT VHH bivalent antibody.
Binding affinities of the bivalent clones to human TIGIT transfected Jurkat cells were confirmed by flowcytometry assays. Jurkat cells stably expressing human TIGIT and NFAT reporter gene were established. Specifically, Jurkat cells were transfected with human TIGIT expression vector by electroporation, and cells stably expressing human TIGIT were selected by 1 μg/ml puromycin during cell culture. Representative antibody clones were incubated at different concentrations with h-TIGIT stably expressing Jurkat cells (0.2×10^6/ml) in 100 μl/well in 96-well plate in FACS buffer (PBS with 1.5% FBS) for 30 min. After washing, Alexaflour 488 conjugated anti-human IgG Fc secondary antibody (Alexa Fluor® 488 AffiniPure Goat Anti-Human IgG, Fcγ fragment specific, Jackson labs, 1:500 dilution) was added and incubated for 30 min. After washing, mean fluorescence intensity was measured using CytoFlex (Beckman Coulter) by gating live cell population. Binding affinity was calculated using GraphPad Prism.

[10] = target: T2, human TIGIT expressed on cells (stably …); assay: as above; remark: listed apart in the source
Description: FIGS. 3A and 3B depict whole cell binding of humanized 1C12 and 1G1 clones to human TIGIT determined by flowcytometry assays. 1C12-chimeric is an antibody with Llama VHH sequence of 1C12 clone and human IgG1 CH2 and CH3 domains, 1C12 (F-EREF), 1C12 (F-EREW) and 1C12 (F-GLEW) are humanized versions of 1C12 clone with difference of mutations in Framework 2. 1G1-chimeric is an antibody with Llama VHH sequence of 1G1 clone and human IgG1 CH2 and CH3 domains. 1G1 (F-G-ERES), 1G1 (F-A-ERES), 1G1 (F-A-EREW) and 1G1 (F-A-GLEW) are four different versions of humanized 1G1 clones with different mutations in framework 2. Y axis is values of Mean Fluorescence Intensity of AlexaFlour 488. X axis is values of antibody concentrations in nanomolar.
The binding affinities of the humanized bivalent antibodies to human TIGIT were determined by whole cell binding to h-TIGIT stably expressed on Jurkat cells. Briefly, antibodies were incubated with h-TIGIT transfected Jurkat cells (0.2×10⁶/well in 100 μl) for 30 min in FACS buffer. The cells were washed once, then incubated with anti-human IgG Fc AlexaFluor488 (1:500). Mean fluorescence intensity was determined by CytoFlex, and binding affinities of antibodies to h-TIGIT were calculated using non-liner regression by GraphPad Prism 8.0 as shown in FIG. 3A.

[11] = target: T2, human TIGIT expressed on cells (stably …); assay: flow cytometry (whole cell binding) on h-TIGIT transfected Jurkat cells; table under the graph, Average (n=3), SD 71.12
[12] = target: T2, human TIGIT expressed on cells (stably …); assay: flow cytometry (whole cell binding) on h-TIGIT transfected Jurkat cells; table under the graph, Average (n=3), SD 0.35

EC50 (Mean, nM), PD1 + TIGIT Combination Blockade Assay (double blockade) [5] [nM] | EC50 (Mean, nM), TIGIT Blockade Assay [5] [nM] | EC50 [6] [nM] | Binder | further results
– | – | – | parental anti-PD1 monoclonal antibody (antibody, human IgG4 S228P, kappa, V domains shown, Antibody from WO 2018/052818 A1; also called aPD1; parental mAb anti-PD1) VH: QVQLVESGGGLVKPGGSLRLSCAASGFTFSNYGMSWIRQAPGKGLEWVSTISGGGSNIYYADSVKGRFTISRDNAKNSLYLQMNSLRAEDTAVYYCVSYYYGIDFWGQGTSVTVSS VL: DIQMTQSPSSLSASVGDRVTITCKASQDVTTAVAWYQQKPGKAPKLLIYWASTRHTGVPSRFSGSGSGTDFTLTISSLQPEDFATYYCQQHYTIPWTFGGGTKLEIKR | EC50 (Mean, nM), PD1 Blockade Assay [1]: 0.73 nM; EC50 [2]: 0.6 nM; binding result [3]: no binding (tested: concentrations not printed); EC50 [4]: 0.36 nM
1.15 | 2.7 | 0.81 | anti-TIGIT x anti-PD1 bispecific antibody, HCN version (bispecific antibody, human IgG4 S228P, kappa, VHH 2A3 fused to the N-terminus of the anti-PD1 heavy chain; also called aTIGITxaPD1-HCN; BsAb HCN) heavy: not shown light: DIQMTQSPSSLSASVGDRVTITCKASQDVTTAVAWYQQKPGKAPKLLIYWASTRHTGVPSRFSGSGSGTDFTLTISSLQPEDFATYYCQQHYTIPWTFGGGTKLEIKRTVAAPSVFIFPPSDEQLKSGTASVVCLLNNFYPREAKVQWKVDNALQSGNSQESVTEQDSKDSTYSLSSTLTLSKADYEKHKVYACEVTHQGLSSPVTKSFNRGEC | EC50 [7]: 0.55 nM
2.61 | 25.9 | 4.93 | anti-TIGIT x anti-PD1 bispecific antibody, HCC version (bispecific antibody, human IgG4 S228P, kappa, VHH 2A3 fused to the C-terminus of the anti-PD1 heavy chain; also called aTIGITxaPD1-HCC) heavy: not shown light: DIQMTQSPSSLSASVGDRVTITCKASQDVTTAVAWYQQKPGKAPKLLIYWASTRHTGVPSRFSGSGSGTDFTLTISSLQPEDFATYYCQQHYTIPWTFGGGTKLEIKRTVAAPSVFIFPPSDEQLKSGTASVVCLLNNFYPREAKVQWKVDNALQSGNSQESVTEQDSKDSTYSLSSTLTLSKADYEKHKVYACEVTHQGLSSPVTKSFNRGEC | EC50 [8]: 4.2 nM
– | – | – | 1C12 bivalent VHH antibody (1C12-chimeric) (Fc fusion, Llama VHH of 1C12 with human IgG1 CH2 and CH3; also called chimeric parental clone; not shown: human IgG1 CH2 and CH3 domains) QVQLVESGGGLVQTGDSLRLSCAASSRIFSRYGMGWFRQAPGKEREFVAAISWNGASTTYTDSVKGRFTISRDSAENTTYLQINSLRPEDTAVYYCAADPWGAVKLGTAEYEYWGQGTQVTVSS | EC50 (read off the curve) [9]: ~0.04 nM; EC50 (read off the curve) [10]: ~0.03 nM
0.48 | 10.3 | 192 | anti-TIGIT x anti-PD1 bispecific antibody, LCC version (bispecific antibody, human IgG4 S228P, kappa, VHH 2A3 fused to the C-terminus of the anti-PD1 light chain; also called aTIGITxaPD1-LCC; aTIGITxaPDI-LCC) heavy: not shown light: DIQMTQSPSSLSASVGDRVTITCKASQDVTTAVAWYQQKPGKAPKLLIYWASTRHTGVPSRFSGSGSGTDFTLTISSLQPEDFATYYCQQHYTIPWTFGGGTKLEIKRTVAAPSVFIFPPSDEQLKSGTASVVCLLNNFYPREAKVQWKVDNALQSGNSQESVTEQDSKDSTYSLSSTLTLSKADYEKHKVYACEVTHQGLSSPVTKSFNRGECGSGGSGGSGGSGQVQLVESGGGVVQPGRSLRLSCAASGGSFSSYPMGWFRQAPGKERESVAAISSDLRFTYYADSVKGRFTISRDNSKNTLYLQMNSLRAEDTAVYYCAARTSGVGYYSRAQWYDYWGQGTLVTVSS | EC50 [11]: 155 nM
1.23 | 8.7 | 0.75 | anti-TIGIT x anti-PD1 bispecific antibody, LCN version (bispecific antibody, human IgG4 S228P, kappa, VHH 2A3 fused to the N-terminus of the anti-PD1 light chain; also called aTIGITxaPD1-LCN) heavy: not shown light: QVQLVESGGGVVQPGRSLRLSCAASGGSFSSYPMGWFRQAPGKERESVAAISSDLRFTYYADSVKGRFTISRDNSKNTLYLQMNSLRAEDTAVYYCAARTSGVGYYSRAQWYDYWGQGTLVTVSSGSGGSGGSGGSGDIQMTQSPSSLSASVGDRVTITCKASQDVTTAVAWYQQKPGKAPKLLIYWASTRHTGVPSRFSGSGSGTDFTLTISSLQPEDFATYYCQQHYTIPWTFGGGTKLEIKRTVAAPSVFIFPPSDEQLKSGTASVVCLLNNFYPREAKVQWKVDNALQSGNSQESVTEQDSKDSTYSLSSTLTLSKADYEKHKVYACEVTHQGLSSPVTKSFNRGEC | EC50 [12]: 0.61 nM
